In the supplement of paper PMC12042874:
± gives the uncertainty stated by the source.

Test: amyloid nucleation score (Sup35N fusion, yeast selection) (log enrichment); library NNK1; higher = more nucleation; inactive = no reads after selection
How it was run: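 For the nucleation score, DiMSum gave the log enrichment of output over input reads, centred on the mode score of non-aggregating sequences. Psi-negative yeast expressing Sup35N fused to peptides of 20 random codons were induced with 100 μM copper sulfate for 24 hours and grown 7 days at 30°C on medium lacking adenine and uracil. Input and output plasmid inserts were Illumina-sequenced, and sequences with under 100 input reads were excluded.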

Substance	amyloid nucleation score
QTSIWFGDYYRKLSLCWHRP	3.63 ± 0.097
LLVMVVMGCCA	0.163 ± 0.83
LVITVYLYVRRDFCFAFGWL	-1.06 ± 1.2
ACQGWGTWEELGHDERTDLV	0.817 ± 0.41
DSRLGLMWMYEPIIRDGKWF	0.802 ± 0.9
VNLRCRSTLEGSN	-0.077 ± 0.31
CVSATRV	0.042 ± 0.48
RCMMPYGESKSGVLMGRYSY	0.393 ± 0.31
RIILGETGAALWWRI	4.61 ± 0.079
VFNTVVS	-0.161 ± 0.41
ARYYLLFAFDNNFCIGVVGS	4.23 ± 0.099
MFVNPALLLFL	0.226 ± 1.6
YGVNLPALLFKYAISGSLVG	1.03 ± 0.53
LYFVSSAFSSQS	0.014 ± 0.27
NSELFIGGDYLDIDST	0.591 ± 0.43
FTRSQAV	inactive
ANRHRNRRSSSRDVFMFVIC	3.02 ± 0.19
RKALYA	-0.117 ± 0.38
DSSCADR	0.674 ± 0.41
FSGLCRSTPGI	-0.469 ± 0.32
HHINWPGCVSRNSYKAIYDG	-0.262 ± 0.84
LHMTFFTPVDLVVQRTDFRL	0.971 ± 0.52
TGRRLERGMRLRHGDAEYCC	0.408 ± 0.28
CRFMNVRYGKRMKVDNTVMA	-0.891 ± 1.4
DNGGSAVQEDQVLAWSTGEQ	0.874 ± 0.23

Substance	amyloid nucleation score
DFYTVLEKYVM	-0.157 ± 0.7
DYRADFNNFVFEERSSYISV	-0.236 ± 0.49
SINVVLAINGTAHCNFSASL	4.66 ± 0.067
SGIPSVLATGYSYKF	-0.273 ± 0.29
RQQMTRTCVNDGS	-1.02 ± 2.4
RVCQKCCPVVYAMNQWIFDW	7.536 ± 0.051
GSVVYVIQGDMKRVLGFNGM	5.42 ± 0.096
PFRNKNQMRWDMKM	0.209 ± 0.37
LHIFLTLHNQHVWARNGGKL	0.603 ± 0.35
GFRSCRCVQGRANVFPYSMS	-0.103 ± 0.25
YNVGLLGLFRCYAQKVGLWE	inactive
MRTPGCVMF	-0.44 ± 0.93
VNSTMVPRVLME	0.935 ± 0.69
CSWVTPNGRVLHCLTNLYYY	0.297 ± 0.59
RGITNCVQCPVIPWFLRYYG	-0.401 ± 0.31
SCNCHWY	1.49 ± 0.74
NFKNKIMGALS	-0.548 ± 2.1
GHQILDSCLANCYGGCLIAC	0.652 ± 0.61
KAPAMHWLDRFVGYVPRV	-0.011 ± 0.27
AIVELLSWSQVTCALWGSIT	0.344 ± 0.69
TINWEPRFRVLHSPIYRGCY	inactive
KVLNFNLSRACLLWDSFNSV	2.65 ± 0.19
GSLWFRLGEFARTNFFNSVF	0.05 ± 0.26
RFEWLCGVFSGALPKGAWLK	-0.144 ± 0.37
TDQCGWGTVRRSAETSLGQL	0.77 ± 0.78

Substance	amyloid nucleation score
SRFKPWGGSFVGYCVLYGRL	-1.01 ± 0.71
FNGRVRGYHSLDNVVHGRLY	0.522 ± 0.58
MDCTFINGFRVFNLSNSR	7.967 ± 0.059
SICTCKWYVSVWWAIWRINN	1.59 ± 0.42
HCFRWSMLGLRYATCPFQSD	-0.108 ± 0.37
GEGSCGVSLSSMYLQWGARV	-0.663 ± 0.83
YFFCVFI	8.469 ± 0.072
VCFMKCLLSCAIEYSRRLDI	1.9 ± 0.64
RIWSLRPFRSEYLRVCFFVS	0.437 ± 0.78
RPMYHGYHMH	0.483 ± 0.38
IGLAICNLLFSTGWGYQPLW	5.75 ± 0.083
VLFHHSSQIRVI	inactive
LDMKSFEQLVKQLPCTWADD	0.222 ± 0.41
MSLLALWCLSVRCTVVLVRT	-0.003 ± 0.48
DTVYDFTMPAWYDYMFWTKW	inactive
LTSRNYESIY	-0.159 ± 0.24
TYERICGCMFCLTCSSDAF	-0.19 ± 0.71
DRLVGWVVWLHVVFPRMYVL	0.483 ± 0.72
LAPASLSSSGYKNCFNRTVR	4.08 ± 0.11
TITDNSPNKTMIEVEEIRL	0.109 ± 1.1
RNGPSWYSAIPY	inactive
VSRMP	3.21 ± 0.12
IKISHACATMRQSGGFYVLK	-0.511 ± 0.39
PHSMYCGETWLSLDCQMQFM	-0.009 ± 0.74
LVLVNSTWCTYPCGWMCEME	0.488 ± 1.2

Substance	amyloid nucleation score
NVRDLSMISLGAEVWGRIAV	0.619 ± 0.81
RNHDANFPCRVDGPLQSTVR	0.135 ± 0.4
SKQGRCLTFYQYVSLIISSM	-0.022 ± 0.18
CVMYSRGFYCADCVCNLMPC	4.85 ± 0.053
VESDKCQLGTLSIMYICFFL	inactive
RLKHDWWITVCLYRVQLNTV	1.59 ± 0.55
AIASVLAN	-0.482 ± 0.3
TYSPQLLYNYPLCLVFLSCL	2.83 ± 0.15
DYVPYEKAHRARMYCPTHQG	0.409 ± 0.35
PDSARSECAGRVNLFVFRAR	0.559 ± 0.32
CVFYASTYVIPYNCENNFTI	0.952 ± 0.26
VIQEPKFMYLQLFVGLPCVS	4.51 ± 0.09
RKYQQGSLHDSGIKNHFFRV	-0.97 ± 1.7
RNDHSRDHPFLDISWVCLGQ	0.58 ± 1.2
RCGLWV	-0.217 ± 0.78
EIAYVLICRHLLECIRA	inactive
SARRTPCTVIL	0.362 ± 1.4
MYVPQSINSYTQWEPKHIRW	1.64 ± 0.43
FFLRESNVGLAQRATMELLD	0.13 ± 1.2
GLEGIRIGWSSLVSMCLWRG	-0.016 ± 0.33
SHTLHDAIYGVDVQPFDTRV	0.102 ± 0.66
FRMCCNYYICHLDGVILIG	1.65 ± 0.26
FISHGRIVHGEDGAVLFVSG	0.277 ± 1.4
PLCPSGRNYVS	-0.159 ± 0.25
LCGISSSCYVVGSLRVIWLS	0.147 ± 0.65

Substance	amyloid nucleation score
VIDYVGFRHTGGGSVGFVGG	-0.387 ± 0.65
NGLFAYVRM	0.505 ± 0.27
VPVLLNARIRI	-1.1 ± 0.81
VHTMSLWCDISQLIVPVNRV	1.1 ± 0.52
SLFAQKS	-0.273 ± 0.32
TIHFRSDQHLSNIWRGFWQY	inactive
HMAAYKVSGVKSGSPEW	-0.145 ± 0.59
RFMSTSLFLMVSNELLSPLM	1.27 ± 0.16
WVRYFPCRIII	-1.27 ± 0.79
FFALVYW	0.275 ± 0.29
DHNLWFDNAFMSLCCCMNMI	3.42 ± 0.19
SGGPGDAGRLRQ	-0.005 ± 0.91
MERTWFG	0.276 ± 0.3
RQNGRKDPGNVKRGITCR	0.066 ± 0.38
GMLGDVTVYLACRLLISRFL	inactive
IFMSRWG	2.78 ± 0.14
LTHCAWVAFDA	1.7 ± 0.52
GKDLDMRRLWFGPAGIWWSK	0.006 ± 0.59
IISMLFAFIGQSIIVQVVRC	0.316 ± 0.26
TYRKYLRVRTLDERHGSVYE	0.147 ± 0.35
HWIMAMFMSPPANTHDEAEI	2.45 ± 0.15
EFYVLISV	-1.23 ± 1.9
FMPRSLHLTTWLQSNAFNNA	3.22 ± 0.068
LAKFESSEVACSLFFAISLA	-0.997 ± 0.94
NCVQARFDERCVRGLGCKFY	-0.724 ± 0.64

Substance	amyloid nucleation score
CGGFGMIFYL	3.03 ± 0.11
HFIFEYTSFSS	0.307 ± 0.29
LPLGYRLLAQPCPESSRTPA	0.001 ± 0.53
FIELMRGDDLMHRGTLYVLR	inactive
SMFCARLDTRVSRTGFPDRG	-0.557 ± 0.61
ACTSLASFHYVLHPKYSCRV	1.2 ± 0.76
VNLYGVLMGSLLGGQRQHDV	-1.1 ± 1.9
VCNWVSLGVALHRALEQLGI	-1.32 ± 0.92
VSEFGFIVF	-0.315 ± 0.76
KGCCLCLISMSVTNRLVEPR	6.294 ± 0.059
LFLKRGPSCTCLLRKSTIEH	0.182 ± 0.69
WFYKLSSLFYNPLCL	-1.13 ± 0.41
ITVRATR	-0.97 ± 1.7
YVIEIMISHVPAIWRGYTCS	0.554 ± 0.71
CQVPSGESNDSPVLRHI	-0.138 ± 0.43
FRHYTANYWYISRRRRMLSV	inactive
KHRFCSIEWVK	1.31 ± 0.71
RGEILCWWIGFYFVAVK	0.149 ± 0.32
LSMGRYRPKRFLLRNTSDTL	-0.438 ± 0.44
CQSFIGTDTKFVIPDMVLAA	inactive
VLRQMS	1.67 ± 0.19
VGFGQSHGVFRCGVMRLRRG	0.192 ± 1.1
LNQRWCCFTISALR	7.702 ± 0.076
RTSSWPTLTHEALLRSGDLC	-0.637 ± 0.48
ERVSETRQSLTWNHNERIWL	1.55 ± 0.12

Substance	amyloid nucleation score
QVRGSASYSVHWINELFFKQ	1.64 ± 0.32
VFIYTAACP	0.492 ± 0.45
NSIPLDLSNTLLLCARC	-0.02 ± 0.49
LHTAETGRLHNAYVILVVYC	inactive
RDPYFRQCTEKQI	1 ± 0.85
FFWRHLESGMGFHKACSHGG	0.005 ± 1.7
TSELFYGTCGKGCPERVGGQ	-0.266 ± 1.6
ACQLLMCLCFFETKGLYLDG	7.603 ± 0.053
SKTRVLM	-0.374 ± 0.41
CSPLVGMTGAMLTVRGSISR	0.019 ± 1
CVFYCRR	0.091 ± 1.1
HHFAYWCIVWPE	0.728 ± 0.54
VALAIIRPY	-0.431 ± 0.27
AYICYLILFQSQRVW	-0.827 ± 1.7
QSWHEWDM	inactive
GSGSDGQVGWFVANRDERRE	0.495 ± 0.38
SVCMLPIDGMGEEVRVFPGV	-0.641 ± 0.62
AVYMLSMCPFEYAYKRCVCG	-1.16 ± 1.7
KLSNFKVHYCYLTSHLMLET	0.053 ± 0.43
RSVWDRWFDPIMTFEQESTW	-0.812 ± 1.7
AFFNCPSTNTVWQRFNANRF	1.72 ± 0.14
